Reference: patent US20260263521A1, “ANTI-CD200R1 ANTIBODY AND USE THEREOF” (AIMED BIO INC., priority 2023, published 2026)
Changes are numbered by the printed parent chain. Names may count otherwise.

Columns and labels:
human CD200R1 [1] = target: T1, human CD200R1 (Homo sapiens, UniProt Q8TD46); assay: ELISA binding to human CD200R1; settings: for binding ability to human CD200R1 compared to parent: ELISA, Example 14; for affinity compared with P001018 clone: scFv mutants, antigen binding (ELISA) and cell binding (FACS)
T1 sequence (Q8TD46 25-348): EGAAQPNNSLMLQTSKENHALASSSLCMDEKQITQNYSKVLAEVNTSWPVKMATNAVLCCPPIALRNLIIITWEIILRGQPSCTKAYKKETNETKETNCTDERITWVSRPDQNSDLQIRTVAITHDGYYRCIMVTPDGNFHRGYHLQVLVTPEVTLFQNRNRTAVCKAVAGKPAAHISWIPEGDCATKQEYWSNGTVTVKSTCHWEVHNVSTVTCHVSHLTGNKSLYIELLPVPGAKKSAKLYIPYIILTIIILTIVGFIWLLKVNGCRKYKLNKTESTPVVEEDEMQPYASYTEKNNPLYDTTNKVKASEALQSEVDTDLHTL
Method: 96-well plates were coated with human CD200R1 (R&D systems, 3414-CD) and mouse CD200R1 protein (R&D systems, 2554-CD) at a concentration of 2 μg/mL at 4° C. for 16 hours and then were blocked with 3% skim milk. The result was treated with the antibodies at concentrations of 300 nM, 60 nM, 12 nM, 2.4 nM, 0.48 nM, 0.096 nM, and 0.0192 nM, and reacted at room temperature for 2 hours.
The result was washed with PBST and distilled water, the samples were bound with a goat-derived HRP-conjugated anti-human antibody (Invitrogen, 31482, Goat anti-Human IgG F(ab′)2 Secondary Antibody, HRP) for 1 hour at room temperature, and then washed again with PBST and distilled water. Color was developed with a TMB substrate solution (Thermo Scientific, 34029, 1-Step™ TMB-ELISA Ultra Substrate Solution). The color reaction was stopped with stop solution (Invitrogen, SS04, ELISA Stop Solution). The absorbance was measured at an optical density of 450 nm.

monkey CD200R1 = assay: ELISA binding to monkey CD200R1; settings: Example 14
Text: Therefore, the LC D51 and LC D92 sequences were not substituted during the optimization process. However, since LC N30 and LC N31 can play an important role in the specific binding of antibodies as paratopes, the sequences were substituted and optimized. Through rational design, LC S52 and LC S94 were substituted with K and R, respectively, to derive P001009v1, and LC S52 and LC D93 were substituted with K and R, respectively, to derive P001009v2. Further, P001009v3, in which LC N30 was substituted with S, and P001009v4, in which LC N31 was substituted with K, were derived and produced, and the binding ability to human, mouse, and monkey CD200R1 was analyzed by ELISA (FIG. 15). […] Both […] and variants thereof had very weak binding ability to mouse CD200R1 at concentrations up to 300 nM.

human CD200R1 [2] = target: T1, human CD200R1; assay: SPR binding kinetics, human CD200R1; settings: hCD200R1-his captured on anti-His CM5 chip, 1:1 Langmuir fit
Method: (§1) The CD200R1-specific binding ability of the antibodies (P001009 wt, P001009 v1, P001009 v2, P001009 v3, P001009 v4) selected in Example 14 was analyzed using surface plasma resonance (SPR). For the experiment, 30 μg/mL of an anti-histidine antibody was conjugated to a CM5 biacore chip via an amine bond while allowing to flow at 10 μl/min (10,000 RU). Then, 0.25 μg/mL of human or cynomolgus CD200R1 with dual His-tags was captured onto the completed chip for 60 seconds, and the binding ability of each antibody was analyzed. All experiments were performed by association of antibodies for 120 seconds and dissociation of antibodies for 600 seconds. The resulting graphs were fitted using a 1:1 Langmuir binding kinetic model (FIG. 16), and the kinetics of each antibody were calculated.

cynomolgus CD200R1 = assay: SPR binding kinetics, cynomolgus CD200R1; settings: cynomolgus CD200R1-his captured on anti-His CM5 chip, 1:1 Langmuir fit
Method: as §1

[3] = target: T2, CD200R1 on HH (CRL-2105) cells (Homo sapiens, UniProt Q8TD46); assay: Cell binding assay (flow cytometry), HH cells; format: cell-based; settings: HH cells; 500 nM; IgG1 form
T2 construct: HH (CRL-2105) cells, which endogenously express CD200R1; host or cells: HH (CRL-2105) cells
T2 sequence (Q8TD46 25-348): T1 sequence (Q8TD46 25-348)
Method: (§2) The binding ability of the antibodies identified using unique multifaceted antibody discovery technology was identified in HH (CRL-2105) cells, which endogenously express CD200R1, and Jurkat-CD200R1 cells (Source: DiscoverX), which were generated by intranuclear injection of CD200R1 cDNA.
(§3) HH and Jurkat-CD200R1 cells were maintained in RPMI 1640 medium supplemented with 10% heat-inactivated FBS and 1% Penicillin/Streptomycin (P/S). The cells were washed by centrifugation at 130 g for 5 minutes. The cells were seeded onto 96-well round-bottom plates (SPL, #34296) at a density of 1×10^5 cells/well in Flow cytometry staining buffer (Invitrogen, #00-4222-26) or FACS buffer. The cells were treated with all 16 substances and the positive control LY3454738 (US 2020/0087395, I-4P, at Eli Lilly) a concentration of 500 nM in the IgG1 form. After incubation for 1 hour at 4° C., the cells were treated with Alexa-647 Goat anti-human IgG (H+L) cross-adsorbed secondary antibody (Invitrogen, #A21445) and incubated at 4° C. for an additional 30 minutes. […]
(§4) Cell-binding ability was determined in the same manner as in Example 12. For the six active substances primarily selected in Example 12, the isotype was changed to IgG4 or the LALAPG gene was mutated, and binding activity was determined in the two cell lines mentioned above.
(§5) Binding ability was determined in HH, an endogenous T cell line with high CD200R1 expression, and two additional overexpressing cell lines: U937-CD200R overexpressing cells, generated by intranuclear injection of human CD200R1 CDNA into the monocytic cell line U937 (CRL-1593.2) (Source: UMC Utrecht, the Netherlands) and Jurkat-CD200R overexpressing cells, were also cells engineered using a similar method.
(§6) All cell lines were maintained in RPMI 1640 medium supplemented with 10% heat-inactivated FBS and 1% penicillin/streptomycin (P/S) and cell binding was determined in the same manner as in Example 12. […]
(§7) Specific binding ability was determined using P001009 WT and antibody-optimized mutants, P001009v1, P001009v2, P001009v3, and P001009v4. […]

[4] = target: T3, CD200R1 on Jurkat-CD200R1 cells (Homo sapiens, UniProt Q8TD46); assay: Cell binding assay (flow cytometry), Jurkat-CD200R1 cells; format: cell-based; settings: Jurkat-CD200R1 cells; 500 nM; IgG1 form
T3 construct: host or cells: Jurkat
T3 sequence (Q8TD46 25-348): T1 sequence (Q8TD46 25-348)
Method: as §2, §3, §4, §5, §6, §7

B1: P001009v2: P001009 variant, LC S52 and LC D93 substituted with K and R; VH SEQ ID NO: 79 (antibody, V domains shown)
VH: EVQLLESGGGLVQPGGSLRLSCAASGFTFSSYDMSWVRQAPGKGLEWVSWISHGGGSIYYADSVKGRFTISRDNSKNTLYLQMNSLRAEDTAVYYCARDAPAYSAPLFDYWGQGTLVTVSS
VL: QSVLTQPPSASGTPGQRVTISCSGSSSNIGNNAVNWYQQLPGTAPKLLIYYDKNRPSGVPDRFSGSKSGTSASLAISGLRSEDEADYYCAAWDRSLSGYVFGGGTKLTVL
With B1 the “binding ability to human CD200R1 compared to parent” value (human CD200R1 [1]) was “reduced”, the “binding ability to monkey CD200R1 compared to parent” value (monkey CD200R1) was “significantly improved” and the Ka (human CD200R1 [2]) was 7.52e+06 M⁻¹ s⁻¹. For the same molecule, the Ka (cynomolgus CD200R1) was 2.82e+06 M⁻¹ s⁻¹.

B2: P001009v4: P001009 variant, LC N31 substituted with K; VH SEQ ID NO: 79 (antibody, V domains shown)
VH: B1 VH
VL: B1 VL with N32K, K53S, R94D
In the case of B2, the “binding ability to human CD200R1 compared to parent” value (human CD200R1 [1]) is reported as “reduced”, the “binding ability to monkey CD200R1 compared to parent” value (monkey CD200R1) is reported as “improved” and the Ka (human CD200R1 [2]) is reported as 6.74e+06 M⁻¹ s⁻¹. For the same molecule, the Ka (cynomolgus CD200R1) was 3.71e+06 M⁻¹ s⁻¹.

B3: ch1F1: clone discovered using hybridoma technology (1F1), tested in IgG1 form (antibody, V domains shown)
VH: QVQLQQPGAEFVKPGAPVKLSCKASGYTFTSYWMNWVKQRPGRGLEWIGRIDPADSEIHYNQKFKDKATLTVDKSSSTAYIQFSSLTSEDSAVYYCARSGGWLPGFAYWGQGTLVTVSA
VL: ENVLTQSPAIMSASPGEKVTMTCSASSSLIYMHWYQQKSSTSPKLWIYDTSKLASGVPGRFSGSGSGNSYSLTINSMEAEDVATYYCFQGSGYPLMYTFGGGTKLEIK
B3 was tested, and the “cell binding ability” value [3] was “significant binding ability” and the “cell binding ability” value [4] was “significant binding ability”.

B4: H3-Y102K: P001018 scFv mutant, SEQ ID NO: 164 (protein)
scFv: QVQLVQSGAEVKKPGASVKVSCKASGYTFTSYVMHWVRQAPGQGLEWMGYINPYNDDTNYNEKFKGRVTMTRDTSTSTVYMELSSLRSEDTAVYYCAREDYYGSRWGKWGQGTLVTVSSGGGGSGGGGSGGGGSDIVLTQSPASLAVSPGQRATITCRASKSVSTSGYSYMHWYQQKPGQPPKLLIYLASNLESGVPARFSGSGSGTDFTLTINPVEANDTANYYCQHSRELLTFGQGTKVEIK
For B4, the “affinity compared with P001018 clone” value (human CD200R1 [1]) was “enhanced affinity”.

B5: L3-L95D: P001018 scFv mutant, SEQ ID NO: 170 (protein)
scFv: B4 scFv with K108Y, L233D
For B5, the “affinity compared with P001018 clone” value (human CD200R1 [1]) was “enhanced affinity”.

B6: L3-L94H: P001018 scFv mutant, SEQ ID NO: 169 (protein)
scFv: B4 scFv with K108Y, L232H
B6 was tested, and the “affinity compared with P001018 clone” value (human CD200R1 [1]) was “enhanced affinity”.

B7: L3-L94S: P001018 scFv mutant, SEQ ID NO: 168 (protein)
scFv: B4 scFv with K108Y, L232S
With B7 the “affinity compared with P001018 clone” value (human CD200R1 [1]) was “enhanced affinity”.

B8: H3-Y102T: P001018 scFv mutant, SEQ ID NO: 165 (protein)
scFv: B4 scFv with K108T
For B8, the “affinity compared with P001018 clone” value (human CD200R1 [1]) was “enhanced affinity”.

B9: L3-R92H: P001018 scFv mutant, SEQ ID NO: 166 (protein)
scFv: B4 scFv with K108Y, R230H
For B9, the “affinity compared with P001018 clone” value (human CD200R1 [1]) was “enhanced affinity”.

B10: L3-T96R: P001018 scFv mutant, SEQ ID NO: 171 (protein)
scFv: B4 scFv with K108Y, T234R
For B10, the “affinity compared with P001018 clone” value (human CD200R1 [1]) was “enhanced affinity”.

B11: L3-R92S: P001018 scFv mutant, SEQ ID NO: 167 (protein)
scFv: B4 scFv with K108Y, R230S
In the case of B11, the “affinity compared with P001018 clone” value (human CD200R1 [1]) is reported as “enhanced affinity”.
